Target: Ribulose-5-phosphate epimerase of Leishmania donovani (Leishmania donovani)
Test: SEC

“Ribulose-5-phosphate epimerase of Leishmania donovani (enzyme)” was tested, and the stoichiometry N was 2.

Source: PMC8756792
